{"source": "paper PMC11707698", "about": "“Structure of an ex vivoDrosophila TOM complex determined by single-particle cryoEM” (IUCrJ, 2025)", "proteins": {"B1": {"name": "Drosophila Tom40 subunit fused to a C-terminal FLAG-HA epitope tag (natural protein, D. melanogaster)", "chain": "AALENPGTVEELHKKCKDIQAITFEGAKIMLNKGLSNHFQVSHTINMSNVVPSGYRFGATYVGTKEFSPTEAFPVLLGDIDPAGNLNANVIHQFSARLRCKFASQIQESKVVASQLTTDYRGSDYTLSLTVANPSIFTNSGVVVGQYLQSVTPALALGSELAYQFGPNVPGRQIAIMSVVGRYTAGSSVWSGTLGQSGLHVCYYQKASDQLQIGAEVETSLRMQESVATLAYQIDLPKANLVFRGGIDSNWQIFGVLEKRLAPLPFTLALSGRMNHVKNNFRLGCGLMIG", "notes": "Tom40, translocation pore of the TOM complex, Drosophila melanogaster; transgene UAS-Tom40-FLAG.HA (Bloomington stock); residues 55-344 are modelled in the structure; two copies stand in the two-pore core complex; also called Tom40-FLAG-HA; Tom40_FLAG-HA; source: transgenic D. melanogaster retina (GMR-GAL4, UAS-Tom40-FLAG-HA, co-expressed with Myc); solubilised fly head membranes, purified on …"}}, "target": "the molecule itself", "assay": "cryo-EM structure; single-particle cryoEM of the TOM core complex assembled in the fly retina, FLAG-purified as a whole and reconstituted into non-ionic amphipol; graphene-coated grids; C2 symmetry; 3.3 Å", "data": [{"protein": "B1", "values": [{"measurement": "stoichiometry N", "result": 2}]}]}
